Source: US7087392B2, “Antiproliferative SgK reagents and methods” (The Regents of the University of California, priority 1999, dated 2006)

What was measured:
Sgk = assay: In vitro peptide kinase assay (Sgktide, [32P]ATP) of immunoprecipitated HA-Sgk; type: biochemical; conditions: mutant forms of Sgk
From the text: Sgk is a component of the PI3 kinase cascade and is directly activated by PDK1 mediated phosphorylation of threonine 256 in the activation loop. […] To develop this kinase assay, lysates from human embryo kidney 293 cells transfected to express wild type hemagglutinin (HA)-tagged Sgk (HA-Sgk) were isolated and the Sgk immunoprecipitated with HA antibodies was used to screen a synthetic peptide library for identifying potential Sgk substrates. The immunoprecipitates were extensively washed, and incubated with the peptide in the presence of [^32P]ATP in kinase buffer (Park et al 1999). Sgk phosphorylated several peptides, and the best substrate for Sgk was KKRNRRLSVA (SEQ ID NO:01), which is named Sgktide. […] This substrate specificity is generally similar to, but not identical, with the substrate specificity for Akt, which is a well characterized down stream component of the PI 3 kinase pathway.
Cotransfection of PDK1 with Sgk caused a 6-fold activation of Sgk activity, whereas, the kinase-dead form of PDK1 had no effect. […] The Ser-78 in the amino terminal domain is a third phosphorylation site and expression of the S78G Sgk mutation ablates the presence of the slowest migrating form of phosphorylated Sgk in SDS polyacrylamide gels.

[1] = target: T1, epithelial sodium channel (ENaC) (Xenopus laevis, UniProt P51167+P51169+P51171); assay: Epithelial sodium channel activity after co-expression in oocytes; type: cell-based
T1 construct: expressed in transfected cells; host or cells: Xenopus laevis oocytes (co-expression with Sgk)
T1 sequence (P51167 1-632): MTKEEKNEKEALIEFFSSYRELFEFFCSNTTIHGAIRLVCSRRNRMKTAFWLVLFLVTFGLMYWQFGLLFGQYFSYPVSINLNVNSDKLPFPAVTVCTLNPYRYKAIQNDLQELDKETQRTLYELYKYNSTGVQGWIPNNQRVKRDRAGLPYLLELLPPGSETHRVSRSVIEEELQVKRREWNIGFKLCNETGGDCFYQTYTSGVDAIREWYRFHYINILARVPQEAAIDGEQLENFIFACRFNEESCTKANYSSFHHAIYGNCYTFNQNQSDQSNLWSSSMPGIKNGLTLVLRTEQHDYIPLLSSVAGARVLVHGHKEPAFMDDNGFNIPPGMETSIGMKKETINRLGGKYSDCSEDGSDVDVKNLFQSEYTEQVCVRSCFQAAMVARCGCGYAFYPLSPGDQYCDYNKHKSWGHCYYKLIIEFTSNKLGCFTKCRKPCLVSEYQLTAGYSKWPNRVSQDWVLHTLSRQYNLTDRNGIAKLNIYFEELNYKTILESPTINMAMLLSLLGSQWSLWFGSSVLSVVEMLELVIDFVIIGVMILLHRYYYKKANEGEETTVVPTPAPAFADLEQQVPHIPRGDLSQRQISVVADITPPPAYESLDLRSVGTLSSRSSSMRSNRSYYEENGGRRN
T1 sequence (P51169 1-647): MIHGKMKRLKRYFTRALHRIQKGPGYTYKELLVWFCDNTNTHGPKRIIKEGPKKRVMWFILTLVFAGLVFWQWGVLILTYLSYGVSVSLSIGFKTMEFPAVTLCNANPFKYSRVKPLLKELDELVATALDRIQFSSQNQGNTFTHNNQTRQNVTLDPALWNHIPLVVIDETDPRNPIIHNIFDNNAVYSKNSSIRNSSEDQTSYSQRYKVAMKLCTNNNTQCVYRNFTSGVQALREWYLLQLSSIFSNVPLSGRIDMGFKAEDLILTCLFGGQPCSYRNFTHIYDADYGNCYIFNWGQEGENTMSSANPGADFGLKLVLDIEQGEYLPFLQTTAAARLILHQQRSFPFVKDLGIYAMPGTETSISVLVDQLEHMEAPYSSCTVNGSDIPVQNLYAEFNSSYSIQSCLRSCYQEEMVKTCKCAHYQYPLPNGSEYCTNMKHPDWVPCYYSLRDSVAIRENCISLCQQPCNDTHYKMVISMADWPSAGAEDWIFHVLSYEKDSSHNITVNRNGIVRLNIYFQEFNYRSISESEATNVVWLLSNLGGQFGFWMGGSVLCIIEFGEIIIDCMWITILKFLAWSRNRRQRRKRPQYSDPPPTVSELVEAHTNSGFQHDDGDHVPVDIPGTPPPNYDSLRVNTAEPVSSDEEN
T1 sequence (P51171 1-660): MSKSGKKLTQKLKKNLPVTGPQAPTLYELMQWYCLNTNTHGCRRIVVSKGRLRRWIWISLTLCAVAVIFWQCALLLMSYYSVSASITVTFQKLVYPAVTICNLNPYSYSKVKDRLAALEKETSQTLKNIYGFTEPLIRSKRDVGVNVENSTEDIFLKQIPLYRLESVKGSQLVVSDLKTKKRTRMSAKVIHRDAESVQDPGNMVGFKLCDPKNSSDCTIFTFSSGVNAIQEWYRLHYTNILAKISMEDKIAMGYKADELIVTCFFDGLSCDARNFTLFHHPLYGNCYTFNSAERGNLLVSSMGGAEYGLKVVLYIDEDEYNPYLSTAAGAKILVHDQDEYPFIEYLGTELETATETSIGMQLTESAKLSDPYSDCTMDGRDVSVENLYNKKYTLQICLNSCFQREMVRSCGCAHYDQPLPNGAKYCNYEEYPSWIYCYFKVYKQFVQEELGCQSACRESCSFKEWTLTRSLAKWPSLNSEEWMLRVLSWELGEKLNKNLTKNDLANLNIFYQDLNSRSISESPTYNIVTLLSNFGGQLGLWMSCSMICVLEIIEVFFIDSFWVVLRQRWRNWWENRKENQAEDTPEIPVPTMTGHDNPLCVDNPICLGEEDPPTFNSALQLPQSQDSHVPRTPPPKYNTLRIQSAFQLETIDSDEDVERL
From the text: Identification of Sgk-interacting proteins that may connect Sgk to the cellular stress response. Using the yeast two-hybrid genetic screening strategy discussed earlier, we also identified IF-1, which is a negative regulator of the mitochondrial F1 ATPase pump, as an Sgk-interacting protein. […] Furthermore, cell lysates containing endogenous Sgk induced in response to glucocorticoids, serum, hyperosmotic stress or UV radiation interacted specifically with the GST-IF1 fusion protein but not with GST alone, as assessed by anti-sgk immunoblotting. […] We disclose that in response to genotoxic or hormonal stress cues, high levels of Sgk protein are produced, which then binds to the IF1 ATPase inhibitor, thus activating the mitochondrial F1 ATPase. We have also shown that Sgk activates the epithelial sodium channel (ENaC) after their co-expression in Xenopus Laevis oocytes. […] These observations indicate that one function of Sgk is to regulate cell volume following osmotic stress of the cells. […] Intriguingly, the cytoplasmic domains of the ENaC beta subunit contain amino acid sequences surrounding a serine that indicate it is an endogenous substrate for Sgk. Previous studies have shown that both the beta and gamma subunits of EnaC are phosphorylated (Shimkets, R. A.,et al. 1998. Proc Natl Acad Sci USA 95:3301–5).

B1: K127M: Sgk with lysine 127 in the ATP binding domain substituted with methionine; kinase dead (protein, UniProt O00141 1-431, looked up, variant K127M)
Serine/threonine-protein …: MTVKTEAAKGTLTYSRMRGMVAILIAFMKQRRMGLNDFIQKIANNSYACKHPEVQSILKISQPQEPELMNANPSPPPSPSQQINLGPSSNPHAKPSDFHFLKVIGKGSFGKVLLARHKAEEVFYAVMVLQKKAILKKKEEKHIMSERNVLLKNVKHPFLVGLHFSFQTADKLYFVLDYINGGELFYHLQRERCFLEPRARFYAAEIASALGYLHSLNIVYRDLKPENILLDSQGHIVLTDFGLCKENIEHNSTTSTFCGTPEYLAPEVLHKQPYDRTVDWWCLGAVLYEMLYGLPPFYSRNTAEMYDNILNKPLQLKPNITNSARHLLEGLLQKDRTKRLGAKDDFMEIKSHVFFSLINWDDLINKKITPPFNPNVSGPNDLRHFDPEFTEEPVPNSIGKSPDSVLVTASVKEAAEAFLGFSYAPPTDSFL
**Q.** B1 was tested. Which “kinase activity / activation of Sgk mutant” value (Sgk) did it give?
**A.** kinase dead form of Sgk

**Q.** And the “basal ENaC activity” value [1]?
**A.** inhibiting the basal EnaC activity
